Source: publication PMC10786891, “Massively parallel profiling of RNA-targeting CRISPR-Cas13d”

Biological target: T1, EsCas13d, nuclease-dead (Eubacterium siraeum, UniProt B0MS50, R295A;H300A;R849A;H854A)
T1 sequence: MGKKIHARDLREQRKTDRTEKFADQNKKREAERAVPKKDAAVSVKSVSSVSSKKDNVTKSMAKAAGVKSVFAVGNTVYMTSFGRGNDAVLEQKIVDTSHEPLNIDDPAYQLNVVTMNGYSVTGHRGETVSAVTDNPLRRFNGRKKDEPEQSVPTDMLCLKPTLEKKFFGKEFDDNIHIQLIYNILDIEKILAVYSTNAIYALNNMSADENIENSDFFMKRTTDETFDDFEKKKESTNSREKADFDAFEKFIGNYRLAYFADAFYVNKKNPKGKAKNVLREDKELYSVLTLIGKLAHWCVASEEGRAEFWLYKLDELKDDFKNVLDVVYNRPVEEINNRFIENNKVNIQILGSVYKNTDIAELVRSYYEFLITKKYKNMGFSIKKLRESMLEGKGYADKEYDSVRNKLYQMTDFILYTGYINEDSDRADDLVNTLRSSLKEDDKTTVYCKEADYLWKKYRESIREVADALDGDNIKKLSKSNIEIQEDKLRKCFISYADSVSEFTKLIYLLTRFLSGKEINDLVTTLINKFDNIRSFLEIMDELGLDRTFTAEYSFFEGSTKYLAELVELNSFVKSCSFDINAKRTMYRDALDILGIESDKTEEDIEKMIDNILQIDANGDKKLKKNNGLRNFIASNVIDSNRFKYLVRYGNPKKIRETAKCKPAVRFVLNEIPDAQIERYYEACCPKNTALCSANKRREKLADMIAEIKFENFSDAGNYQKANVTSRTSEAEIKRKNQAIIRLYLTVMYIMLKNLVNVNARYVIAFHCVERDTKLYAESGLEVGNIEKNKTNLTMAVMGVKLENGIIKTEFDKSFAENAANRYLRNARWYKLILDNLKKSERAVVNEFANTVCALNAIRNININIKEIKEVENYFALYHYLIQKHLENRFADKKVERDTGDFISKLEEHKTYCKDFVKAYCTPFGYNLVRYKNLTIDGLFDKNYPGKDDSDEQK
Experiment: crRNA (strand 1, pre-loaded); Mg2+; 40 mM Tris-HCl pH 7.5, 150 mM NaCl, 6 mM MgCl2, 1 mM DTT, 0.1% Tween-20, 0.2 mg/ml BSA; 25 C; 10 min per concentration, then washed
Settings: tags: His6-TwinStrep-SUMO cleaved; N-terminal SNAP kept (SNAP-Surface 488); label: 3' end held by stalled T7 RNA polymerase

B1: target 3 insG 3' of 9,insC 3' of 3 (mixed)
RNA 1: CACCCGUGCAAAAUUGCAGGGGUCUAAAACGACCUGAAUAUUUCAGAUCAAA
RNA 2: GGGAAUGGAUCCACAUCUACGAAUUCGUUUUUGAUCUGAAAUAGUUCAGGCUCUGCAGAUCGGAAGAGCACACGU
Kd: 42 ± 7 nM

B2: target 3 U2G,A13U (mixed)
RNA 1: CACCCGUGCAAAAUUGCAGGGGUCUAAAACGACCUGAAUAUUUCAGAUCAAA
RNA 2: GGGAAUGGAUCCACAUCUACGAAUUCGUUUUUGAUCUGUAAUAUUCAGGGCUGCAGAUCGGAAGAGCACACGU
Kd: 46.5 ± 13.5 nM

B3: target 3 U2G,A12C (mixed)
RNA 1: CACCCGUGCAAAAUUGCAGGGGUCUAAAACGACCUGAAUAUUUCAGAUCAAA
RNA 2: GGGAAUGGAUCCACAUCUACGAAUUCGUUUUUGAUCUGACAUAUUCAGGGCUGCAGAUCGGAAGAGCACACGU
Kd: 23.5 ± 4 nM

B4: target 3 complement block 5-7 (mixed)
RNA 1: CACCCGUGCAAAAUUGCAGGGGUCUAAAACGACCUGAAUAUUUCAGAUCAAA
RNA 2: GGGAAUGGAUCCACAUCUACGAAUUCGUUUUUGAUCUGAAAUAUAGUGGUCUGCAGAUCGGAAGAGCACACGU
Kd: 39.1 ± 2.9 nM

B5: target 3 insC 3' of 22,insG 3' of 2 (mixed)
RNA 1: CACCCGUGCAAAAUUGCAGGGGUCUAAAACGACCUGAAUAUUUCAGAUCAAA
RNA 2: GGGAAUGGAUCCACAUCUACGAAUUCGUUUCUUGAUCUGAAAUAUUCAGGUGCUGCAGAUCGGAAGAGCACACGU
Kd: 59 ± 11 nM

B6: target 3 insA 3' of 22,insA 3' of 2 (mixed)
RNA 1: CACCCGUGCAAAAUUGCAGGGGUCUAAAACGACCUGAAUAUUUCAGAUCAAA
RNA 2: GGGAAUGGAUCCACAUCUACGAAUUCGUUUAUUGAUCUGAAAUAUUCAGGUACUGCAGAUCGGAAGAGCACACGU
Kd: 24.9 ± 2.35 nM

B7: target 3 insA 3' of 10,insA 3' of 2 (mixed)
RNA 1: CACCCGUGCAAAAUUGCAGGGGUCUAAAACGACCUGAAUAUUUCAGAUCAAA
RNA 2: GGGAAUGGAUCCACAUCUACGAAUUCGUUUUUGAUCUGAAAUAAUUCAGGUACUGCAGAUCGGAAGAGCACACGU
Kd: 56 ± 8.5 nM

B8: target 3 G3C,G4A (mixed)
RNA 1: CACCCGUGCAAAAUUGCAGGGGUCUAAAACGACCUGAAUAUUUCAGAUCAAA
RNA 2: GGGAAUGGAUCCACAUCUACGAAUUCGUUUUUGAUCUGAAAUAUUCAACUCUGCAGAUCGGAAGAGCACACGU
Kd: 6.6 ± 0.65 nM

B9: target 3 del2 (mixed)
RNA 1: CACCCGUGCAAAAUUGCAGGGGUCUAAAACGACCUGAAUAUUUCAGAUCAAA
RNA 2: GGGAAUGGAUCCACAUCUACGAAUUCGUUUUUGAUCUGAAAUAUUCAGGCUGCAGAUCGGAAGAGCACACGU
Kd: 9.1 ± 0.7 nM

B10: target 3 del2,del8 (mixed)
RNA 1: CACCCGUGCAAAAUUGCAGGGGUCUAAAACGACCUGAAUAUUUCAGAUCAAA
RNA 2: GGGAAUGGAUCCACAUCUACGAAUUCGUUUUUGAUCUGAAAUAUCAGGCUGCAGAUCGGAAGAGCACACGU
Kd: 47 ± 8.5 nM

B11: target 3 insA 3' of 14,insU 3' of 5 (mixed)
RNA 1: CACCCGUGCAAAAUUGCAGGGGUCUAAAACGACCUGAAUAUUUCAGAUCAAA
RNA 2: GGGAAUGGAUCCACAUCUACGAAUUCGUUUUUGAUCUGAAAAUAUUCAUGGUCUGCAGAUCGGAAGAGCACACGU
Kd: 69.5 ± 12.5 nM

B12: target 3 U10C (mixed)
RNA 1: CACCCGUGCAAAAUUGCAGGGGUCUAAAACGACCUGAAUAUUUCAGAUCAAA
RNA 2: GGGAAUGGAUCCACAUCUACGAAUUCGUUUUUGAUCUGAAACAUUCAGGUCUGCAGAUCGGAAGAGCACACGU
Kd: 88 ± 22 nM

B13: target 1 insU 3' of 22,insU 3' of 4 (mixed)
RNA 1: CACCCGUGCAAAAAUGCAGGGGUCUAAAACUGAGCGGAUAACCUCUCUAUGG
RNA 2: GGGAAUGGAUCCACAUCUACGAAUUCGUACUCAUAGAGAGGUUAUCCGCUUCACCGAGAUCGGAAGAGCACACGU
Kd: 32 ± 5 nM
